Laboratory results from publication PMC11333002, “Molecular dynamics simulations reveal how vinculin refolds partially unfolded talin rod helices to stabilize them against mechanical force” (PLOS Computational Biology, 2024).
Where two headings read alike, the source gives them in different places.

Columns and labels:
[1] = target: mouse talin1 R1 VBS (H4) peptide, fluorescein labelled (mouse); experiment: fluorescence polarisation; fluorescein-labelled VBS peptide at 700 nM, 2-fold serial dilution of protein, triplicate, 25°C; one-site total binding equation
Sequence of mouse talin1 R1 VBS (H4) peptide, fluorescein labelled (mouse) (peptide, as listed by the source): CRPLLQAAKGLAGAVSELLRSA

talin = conditions: cited from earlier work
Source text: (Fig 1H). However, how the complexation occurs when the VBS structure is destabilized by force remains unclear. ... || Constant velocity SMD is known to overestimate the unfolding force magnitude, and the measured unfolding forces were approximately one order of magnitude higher when compared to the force required experimentally for vinculin dissociation from talin (above 25 pN). Therefore, to reach unfolding force magnitude within the force range seen in previous studies (<100 pN), we performed microsecond-scale constant force SMD simulations. Using constant force at 70 pN, we achieved limited but noticeable VBS destabilization in the vinculin-bound state within 3 μs. Increasing the fo ... || To assess the thermodynamic parameters of recognition and binding of partially unfolded talin VBS by vinculin, we used umbrella sampling and the weighted histogram analysis method to calculate the vinculin–VBS binding energy profiles. We used two different starting states of VBS: 1) fully α-helical VBS and 2) partially unfolded VBS, stretched by 1.5 nm. This distance was chosen to be consistent with the previously observed contractions upon vinculin binding to R3 (∼1.5–2.5 nm per VBS, depending on force magnitude). The whole process of vinculin–VBS binding was divided into three ... || (+ 2 further places)

[2] = test system: Vinculin-null mouse embryonic fibroblasts (MEF); experiment: Adhesion localization, vinculin/talin intensity (immunostaining, confocal); assay type: cell-based; conditions: full-length vinculin; vs WT vinculin; n = 22 (WT) and 23 (Q19S) cells
Procedure: Vinculin-null mouse embryonic fibroblasts (MEF) were a kind gift from Prof. Carsten Grashoff (University of Münster) and have been previously described. Cells were maintained at 10–80% confluency in high-glucose Dulbecco’s modified Eagle medium with GlutaMax (10566016, Thermo Fisher Scientific) supplemented with 10% fetal bovine serum (Gibco) in a humidified 37°C, 5% CO2 incubator. For FRAP experiments, Vin-/- MEF cells were adapted to FluoroBrite DMEM medium (Thermo Fisher Scientific) supplemented with 10% fetal bovine serum and 1% GlutaMax for a minimum of 48 hours.
mEmerald-Vinculin-N-21 was a gift from Michael Davidson (Addgene plasmid # 54304; http://n2t.net/addgene:54304; RRID:Addgene_54304). To restore the wildtype human vinculin sequence, L234V backmutation was introduced to all vinculin constructs. Q19S mutation was introduced by GenScript cloning service. All plasmid constructs were authenticated by sequencing. Vin-/- MEF cells were transfected with the Neon transfection system (Thermo Fisher Scientific). […]
For adhesion intensity analysis, immunostained cells were imaged using a Nikon Eclipse Ti2-E inverted microscope equipped with A1R+ laser scanning confocal unit (Nikon) and Nikon CFI Plan Apo IR SR 60x WI (NA 1.27) objective. […] Talin and vinculin intensities in adhesion sites were analyzed using Fiji distribution of ImageJ 1.53t. […]

## VD1 domain of mouse vinculin, Q19S (domain or fragment)
[1]
  fold higher affinity than WT mVD1: 1.75 fold

B1: vinculin: vinculin in cited magnetic tweezers experiments with talin (protein, UniProt P18206 1-1134, looked up)
Vinculin: MPVFHTRTIESILEPVAQQISHLVIMHEEGEVDGKAIPDLTAPVAAVQAAVSNLVRVGKETVQTTEDQILKRDMPPAFIKVENACTKLVQAAQMLQSDPYSVPARDYLIDGSRGILSGTSDLLLTFDEAEVRKIIRVCKGILEYLTVAEVVETMEDLVTYTKNLGPGMTKMAKMIDERQQELTHQEHRVMLVNSMNTVKELLPVLISAMKIFVTTKNSKNQGIEEALKNRNFTVEKMSAEINEIIRVLQLTSWDEDAWASKDTEAMKRALASIDSKLNQAKGWLRDPSASPGDAGEQAIRQILDEAGKVGELCAGKERREILGTCKMLGQMTDQVADLRARGQGSSPVAMQKAQQVSQGLDVLTAKVENAARKLEAMTNSKQSIAKKIDAAQNWLADPNGGPEGEEQIRGALAEARKIAELCDDPKERDDILRSLGEISALTSKLADLRRQGKGDSPEARALAKQVATALQNLQTKTNRAVANSRPAKAAVHLEGKIEQAQRWIDNPTVDDRGVGQAAIRGLVAEGHRLANVMMGPYRQDLLAKCDRVDQLTAQLADLAARGEGESPQARALASQLQDSLKDLKARMQEAMTQEVSDVFSDTTTPIKLLAVAATAPPDAPNREEVFDERAANFENHSGKLGATAEKAAAVGTANKSTVEGIQASVKTARELTPQVVSAARILLRNPGNQAAYEHFETMKNQWIDNVEKMTGLVDEAIDTKSLLDASEEAIKKDLDKCKVAMANIQPQMLVAGATSIARRANRILLVAKREVENSEDPKFREAVKAASDELSKTISPMVMDAKAVAGNISDPGLQKSFLDSGYRILGAVAKVREAFQPQEPDFPPPPPDLEQLRLTDELAPPKPPLPEGEVPPPRPPPPEEKDEEFPEQKAGEVINQPMMMAARQLHDEARKWSSKPGIPAAEVGIGVVAEADAADAAGFPVPPDMEDDYEPELLLMPSNQPVNQPILAAAQSLHREATKWSSKGNDIIAAAKRMALLMAEMSRLVRGGSGTKRALIQCAKDIAKASDEVTRLAKEVAKQCTDKRIRTNLLQVCERIPTISTQLKILSTVKATMLGRTNISDEESEQATEMLVHNAQNLMQSVKETVREAEAASIKIRTDAGFTLRWVRKTPWYQ
talin; above 15 pN, ref [26]
  vinculin–VBS binding above 15 pN: fast transition
talin; above 25 pN, ref [22],[26]
  increase in talin end-to-end distance on vinculin dissociation: ~3 nm
talin; depending on force magnitude, ref [26]
  contraction per VBS on vinculin binding to R3: 1.5–2.5 nm
talin; lower forces, ref [26]
  time of vinculin–VBS binding under lower forces: within hundreds of milliseconds
talin; ref [22],[26]
  force for vinculin dissociation from talin: above 25 pN
talin; talin R3, 9 pN, ref [26]
  reduction in talin end-to-end distance on vinculin binding: ~ 1.5 nm
talin; talin R3, 20 pN, ref [26]
  reduction in talin end-to-end distance on vinculin binding: ~ 2.5 nm

B2: Q19S vinculin: full-length mEmerald-vinculin with Q19S mutation (protein, UniProt Q64727 1-1066, looked up, variant Q19S)
chain: MPVFHTRTIESILEPVAQSISHLVIMHEEGEVDGKAIPDLTAPVAAVQAAVSNLVRVGKETVQTTEDQILKRDMPPAFIKVENACTKLVQAAQMLQSDPYSVPARDYLIDGSRGILSGTSDLLLTFDEAEVRKIIRVCKGILEYLTVAEVVETMEDLVTYTKNLGPGMTKMAKMIDERQQELTHQEHRVMLVNSMNTVKELLPVLISAMKIFVTTKNSKNQGIEEALKNRNFTVEKMSAEINEIIRVLQLTSWDEDAWASKDTEAMKRALASIDSKLNQAKGWLRDPNASPGDAGEQAIRQILDEAGKVGELCAGKERREILGTCKMLGQMTDQVADLRARGQGASPVAMQKAQQVSQGLDVLTAKVENAARKLEAMTNSKQSIAKKIDAAQNWLADPNGGPEGEEQIRGALAEARKIAELCDDPKERDDILRSLGEIAALTSKLGDLRRQGKGDSPEARALAKQVATALQNLQTKTNRAVANSRPAKAAVHLEGKIEQAQRWIDNPTVDDRGVGQAAIRGLVAEGHRLANVMMGPYRQDLLAKCDRVDQLTAQLADLAARGEGESPQARALASQLQDSLKDLKAQMQEAMTQEVSDVFSDTTTPIKLLAVAATAPPDAPNREEVFDERAANFENHSGRLGATAEKAAAVGTANKSTVEGIQASVKTARELTPQVISAARILLRNPGNQAAYEHFETMKNQWIDNVEKMTGLVDEAIDTKSLLDASEEAIKKDLDKCKVAMANIQPQMLVAGATSIARRANRILLVAKREVENSEDPKFREAVKAASDELSKTISPMVMDAKAVAGNISDPGLQKSFLDSGYRILGAVAKVREAFQPQEPDFPPPPPDLEQLRLTDELAPPKPPLPEGEVPPPRPPPPEEKDEEFPEQKAGEVINQPMMMAARQLHDEARKWSSKGNDIIAAAKRMALLMAEMSRLVRGGSGTKRALIQCAKDIAKASDEVTRLAKEVAKQCTDKRIRTNLLQVCERIPTISTQLKILSTVKATMLGRTNISDEESEQATEMLVHNAQNLMQSVKETVREAEAASIKIRTDAGFTLRWVRKTPWYQ
modifications: full-length mEmerald
notes: full-length mEmerald-vinculin with Q19S mutation
[2]
  incorporation into talin-rich focal adhesions: incorporated into talin-rich focal adhesions similarly
